US20240342207, “MODIFIED NUCLEIC ACID COMPOSITIONS AND ASSOCIATED METHODS FOR TREATMENT OF PHENYLKETONURIA” (BOARD OF REGENTS, THE UNIVERSITY OF TEXAS SYSTEM, published 2024)

Assays:
[1] = molecular target: T1, PAH (phenylalanine hydroxylase), wild type (Homo sapiens, UniProt P00439 P00439:1-452); test: EMSA; 5 mM MgCl2, 100 mM KCl, 30 C; settings: tags: His-tag, pET-DEST42, E. coli BL21-CodonPlus (DE3)-RIPL, cobalt resin, label: 32P
T1 sequence: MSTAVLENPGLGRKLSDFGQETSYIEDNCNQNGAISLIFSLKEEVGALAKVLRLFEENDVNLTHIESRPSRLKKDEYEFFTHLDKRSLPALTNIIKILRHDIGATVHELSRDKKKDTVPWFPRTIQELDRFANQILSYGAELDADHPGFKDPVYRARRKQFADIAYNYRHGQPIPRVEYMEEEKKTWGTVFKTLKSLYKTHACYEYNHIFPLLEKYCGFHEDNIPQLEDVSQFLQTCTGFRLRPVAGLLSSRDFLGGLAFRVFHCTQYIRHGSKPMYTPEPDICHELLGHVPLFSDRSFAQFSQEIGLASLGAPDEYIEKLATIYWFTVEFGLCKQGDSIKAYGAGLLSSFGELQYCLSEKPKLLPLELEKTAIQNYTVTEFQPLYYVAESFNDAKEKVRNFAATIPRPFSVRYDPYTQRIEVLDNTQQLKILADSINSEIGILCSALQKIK
Experimental: RNA Electrophoretic Mobility Shift Assay (EMSA). The gel mobility shift assay was performed as previously described (42). Briefly, 500 ng recombinant His-tagged wild-type PAH or mutants were incubated with 0.035 μmol labeled probe in a RNA-protein binding buffer [(50 mM Tris-HCl 7.9, 10% glycerol, 100 mM KCl, 5 mM MgCl₂, 10 mM (3-ME, 0.1% NP40] for 30 min at 30° C. For cold RNA competition, 0.035 μmol radiolabeled RNA probes were first mixed with 7 μmol cold RNA competitors and then subjected to the gel shift assay.

[2] = molecular target: T1, PAH (phenylalanine hydroxylase), wild …; test: mutant mimic abolished interaction; settings: tags: His-tag, pET-DEST42, E. coli BL21-CodonPlus (DE3)-RIPL, cobalt resin
[3] = molecular target: T1, PAH (phenylalanine hydroxylase), wild …; test: affinity similar to full-length HULC; settings: tags: His-tag, pET-DEST42, E. coli BL21-CodonPlus (DE3)-RIPL, cobalt resin

Q: Does CCAAAAUGCAUGUGUAUCUUUGG (ssRNA) [HULC 180-202 mutant EMSA probe] bind [1]?
A: Result: no binding

Q: Does CAAAATGCATGTGTATCTTTG (XNA, 2'-F at all nucleotides) [HULC mutant mimic, 2'-F (A191G)] bind [2]?
A: Result: no binding

Q: Does CCAAAAUGCAUAUGUAUCUUUGG (ssRNA) [HULC 180-202 WT EMSA probe] bind ([1]; stem-loop)?
A: Result: binds

Q: Does GGUGAGCUGCGUAUAGCUCGUC (ssRNA) [Pair 467-488 WT EMSA probe] bind ([1]; stem-loop)?
A: Result: binds

Q: Does CAAAATGCATATGTATCTTTG (XNA, 2'-F at all nucleotides) [HULC mimic, 2'-F] bind [3]?
A: Result: binds

Q: Does GGUGAGCUGCGUGUAGCUCGUC (ssRNA) [Pair 467-488 mutant EMSA probe] bind [1]?
A: Result: no binding
